{
  "source": "paper PMC9671113",
  "key": {"[1]": {"molecular_target": "trimeric pre-fusion SARS-CoV-2 spike glycoprotein (pre-S) (SARS-CoV-2 (Wuhan-Hu-1 strain) | Phage T4) (UniProt P0DTC2)", "test": "SEC"}, "[2]": {"molecular_target": "trimeric pre-fusion SARS-CoV-2 spike glycoprotein (pre-S) (SARS-CoV-2 (Wuhan-Hu-1 strain) | Phage T4) (UniProt P0DTC2)", "test": "negative-stain electron microscopy (called Cryo-EM by the paper)"}},
  "data": [
    {"substance": "trimeric pre-fusion SARS-CoV-2 spike glycoprotein (pre-S) (from UniProt P0DTC2 14-1201) (domain or fragment)", "values": [
      {"measurement": "stoichiometry N", "setting": "[1]", "result": 3},
      {"measurement": "stoichiometry N", "setting": "[2]", "result": 3}
    ]}
  ]
}
